Experimental findings from the Human Domainome abundance scans (Beltran et al. 2025) are described below.

B1: Serine/threonine-protein kinase LATS1, residues 98 to 141; numbered along this chain, O95835 (parent)
chain: TSEVNPQMLQDLQAAGFDEDMVIQALQKTNNRSIEAAIEFISKM
B2: Apoptosis-associated speck-like protein containing a CARD, residues 114 to 194; numbered along this chain, Q9ULZ3 (parent)
chain: FIDQHRAALIARVTNVEWLLDALYGKVLTDEQYQAVRAEPTNPSKMRKLFSFTPAWNWTCKDLLLQALRESQSYLVEDLER

± gives the uncertainty stated by the source.

Variants of B1 are the subject of the first data set. In words: abundance fitness (aPCA) (normalised: wild type 0, dead -1); higher = more abundant; growth selection in yeast, the domain comes from the species named. To be noted: Homo sapiens.
S2A: the abundance fitness was -0.07 ± 0.04.

With S2D, the abundance fitness is -0.082 ± 0.058.

S2C: the abundance fitness was -0.154 ± 0.093. The same measure, in the same setting: the result for T1L reads -0.303 ± 0.071; that for T1D, 0.018 ± 0.087. In the case of T1F, the abundance fitness was -0.032 ± 0.23. Consider T1K, for which the abundance fitness was -0.012 ± 0.047. The same measure, in the same setting: the result for T1A reads -0.062 ± 0.042; that for T1C, -0.098 ± 0.046; that for T1Y, -0.26 ± 0.11.

For T1E, the abundance fitness was found to be 0.019 ± 0.16. For the variant T1I, the abundance fitness is -0.079 ± 0.056. The same measure, in the same setting: the result for T1S reads 0.021 ± 0.04; that for T1P, -0.213 ± 0.074; that for T1W, -0.197 ± 0.054. Consider T1M, for which the abundance fitness was -0.11 ± 0.067.

Turning to T1V, the abundance fitness was -0.148 ± 0.048.

With T1G, the abundance fitness is 0.023 ± 0.041.

For T1N, the abundance fitness stood at 0.316 ± 0.13. As for T1Q, the abundance fitness was -0.062 ± 0.1. With T1R, the abundance fitness was -0.072 ± 0.052.

The variants in another data set derive from B2. The data set is described as above. The settings on record: Homo sapiens.
Take L65P: the abundance fitness was -0.939 ± 0.23. Take L65N: the abundance fitness is -0.548 ± 0.21.

Consider L65G, for which the abundance fitness is -0.611 ± 0.052.

For the variant L65I, the abundance fitness was -0.338 ± 0.099. The same measure, in the same setting: the result for L65Q reads -0.812 ± 0.18. The same measure, in the same setting: then E39N, with -0.26 ± 0.24.

In the case of E39T, the abundance fitness was -0.789 ± 0.17. In the case of E39Q, the abundance fitness was -0.293 ± 0.11.

As to E39K, the abundance fitness is -0.549 ± 0.11. Same read-out and setting: then Y74Q, with 0.265 ± 0.062. On the same count and under the same terms, then Y74T, with 0.138 ± 0.07; and Y74G, with 0.151 ± 0.048; and Y74A, with 0.202 ± 0.057. As to Y74P, the abundance fitness was -0.081 ± 0.065. Regarding Q4P, the abundance fitness was -1.03 ± 0.18. Consider Q4C, for which the abundance fitness is -0.43 ± 0.14. Consider Q4N, for which the abundance fitness was -0.103 ± 0.12. Same read-out and setting: then K26I, with -0.094 ± 0.11. Turning to K26G, the abundance fitness was -0.513 ± 0.062.

As to K26P, the abundance fitness was -0.369 ± 0.065. On the same count and under the same terms, then K26T, with 0.014 ± 0.073. On the same count and under the same terms, the result for K26V reads -0.106 ± 0.051.

For T41V, the abundance fitness was -0.707 ± 0.087. Same read-out and setting: then T41C, with -0.28 ± 0.077; and T41L, with -0.834 ± 0.11.

In the case of T41K, the abundance fitness is -0.755 ± 0.18. L68N: the abundance fitness is -0.54 ± 0.5. The same measure, in the same setting: then L68G, with -0.764 ± 0.1; and F50N, with -0.775 ± 0.33; and F50K, with -1.02 ± 0.32. For F50D, the abundance fitness was -1.06 ± 0.48. In the case of F50E, the abundance fitness is -0.799 ± 0.19. Take F50V: the abundance fitness is -0.536 ± 0.073.

On to F50P, for which the abundance fitness is -0.607 ± 0.098.

For Q34P, the abundance fitness was -0.817 ± 0.13. For Q34L, the abundance fitness was -0.295 ± 0.064. On the same count and under the same terms, the result for I10F reads -0.84 ± 0.17; that for I10Y, -0.54 ± 0.2; that for I10A, -0.714 ± 0.097. I10E: the abundance fitness is -0.594 ± 0.066.

D30N: the abundance fitness is -0.325 ± 0.084. As for D30G, the abundance fitness is -0.545 ± 0.052. Still for that read-out and setting: the result for D30S reads -0.249 ± 0.058; that for L20G, -0.901 ± 0.093; that for L20I, -0.179 ± 0.094.

Consider L20F, for which the abundance fitness was -0.621 ± 0.23. On the same count and under the same terms, the result for L23C reads -0.444 ± 0.14; that for L23A, -0.753 ± 0.075.

With L23E, the abundance fitness was -0.719 ± 0.14. Take L23R: the abundance fitness was -0.83 ± 0.088. Turning to L23W, the abundance fitness is -0.939 ± 0.21.

Consider L23H, for which the abundance fitness was -0.698 ± 0.34. On the same count and under the same terms, then L28D, with -0.935 ± 0.21. Regarding L28W, the abundance fitness was -0.798 ± 0.06. For L28I, the abundance fitness is -0.119 ± 0.068. The same measure, in the same setting: then L28S, with -0.812 ± 0.091; and L28K, with -0.807 ± 0.24. Same read-out and setting: then L28Q, with -0.931 ± 0.23. Same read-out and setting: then L28V, with -0.734 ± 0.078. D21M: the abundance fitness is -0.292 ± 0.092. In the case of D21C, the abundance fitness was -0.466 ± 0.13. Regarding D21R, the abundance fitness is -0.33 ± 0.04. On to D21H, for which the abundance fitness is -0.162 ± 0.073.

Regarding D21I, the abundance fitness was -0.69 ± 0.24. In the case of H5V, the abundance fitness is -0.147 ± 0.057. For H5M, the abundance fitness was -0.145 ± 0.075. The same measure, in the same setting: then H5S, with -0.657 ± 0.09; and H5P, with -0.741 ± 0.13; and H5A, with -0.276 ± 0.08. The same measure, in the same setting: then H5K, with -0.605 ± 0.19; and H5Y, with -0.316 ± 0.11; and F1R, with -0.498 ± 0.26. The same measure, in the same setting: the result for F1S reads -0.385 ± 0.21.

In the case of F1D, the abundance fitness is -0.685 ± 0.28. The same measure, in the same setting: the result for F1L reads -0.809 ± 0.2. For F1C, the abundance fitness is -1.04 ± 0.38. Take A55D: the abundance fitness was -0.061 ± 0.16. On the same count and under the same terms, the result for A55K reads 0.016 ± 0.16; that for A55Q, -0.062 ± 0.081; that for A55E, 0.087 ± 0.073. Same read-out and setting: the result for K45W reads -0.852 ± 0.24; that for K45Q, -0.695 ± 0.19. On the same count and under the same terms, then K45T, with -0.764 ± 0.13; and V36Y, with -0.973 ± 0.25; and V36F, with -0.548 ± 0.12.

Regarding V36S, the abundance fitness is -0.334 ± 0.064. As to V36T, the abundance fitness is -1.01 ± 0.24. On the same count and under the same terms, then G25F, with -0.931 ± 0.22. Take G25L: the abundance fitness was -0.45 ± 0.058. Consider L79E, for which the abundance fitness is -0.774 ± 0.18. Same read-out and setting: the result for L79S reads -0.914 ± 0.14. As to L79T, the abundance fitness was -0.848 ± 0.25.

As for L79Q, the abundance fitness was -0.706 ± 0.17. The same measure, in the same setting: then L79D, with -0.508 ± 0.23. As for L79F, the abundance fitness was -0.678 ± 0.16. With L79A, the abundance fitness was -0.726 ± 0.11. Turning to R69N, the abundance fitness is -0.581 ± 0.16.

On to R69M, for which the abundance fitness is -0.505 ± 0.13.

On to Q32I, for which the abundance fitness is -0.772 ± 0.26. Same read-out and setting: the result for Q32F reads -0.829 ± 0.27; that for Q32N, -0.873 ± 0.22. For R47W, the abundance fitness was -0.497 ± 0.066. On to R47E, for which the abundance fitness amounted to 0.037 ± 0.081. R47K: the abundance fitness is -0.008 ± 0.087. For the variant R47M, the abundance fitness is -0.166 ± 0.083. The same measure, in the same setting: then R47F, with -0.786 ± 0.18. Same read-out and setting: then R47N, with -0.214 ± 0.17; and L64Q, with -0.354 ± 0.19. On to L64C, for which the abundance fitness is -0.481 ± 0.15. With L64A, the abundance fitness is -0.343 ± 0.065. Still for that read-out and setting: then L64P, with -1.02 ± 0.21; and V27Q, with -0.613 ± 0.15; and V27K, with -1.09 ± 0.3. Consider V27I, for which the abundance fitness was -0.392 ± 0.12.

With V27C, the abundance fitness is 0.002 ± 0.082. Same read-out and setting: then S73G, with 0.067 ± 0.043; and S73Y, with -0.167 ± 0.086; and S73Q, with -0.016 ± 0.11. Regarding S73E, the abundance fitness was -0.218 ± 0.086.

Take L9C: the abundance fitness is -0.558 ± 0.075. On to L9G, for which the abundance fitness is -0.624 ± 0.067.

For L9Q, the abundance fitness is -1.03 ± 0.27. In the case of Y33A, the abundance fitness was -0.1 ± 0.06. Consider Y33M, for which the abundance fitness is -0.189 ± 0.11. Still for that read-out and setting: the result for Y33V reads 0.136 ± 0.047; that for Y33E, -0.59 ± 0.12. The same measure, in the same setting: the result for A38L reads -0.176 ± 0.05. For the variant S51D, the abundance fitness is -0.169 ± 0.095.

Turning to S51L, the abundance fitness is -0.938 ± 0.13.

S51A: the abundance fitness is -0.422 ± 0.063. On the same count and under the same terms, then S51N, with -0.806 ± 0.22.

S51F: the abundance fitness is -0.633 ± 0.14. Same read-out and setting: the result for S51G reads -0.587 ± 0.057. Still for that read-out and setting: then R12F, with -0.655 ± 0.21. Regarding R12M, the abundance fitness was -0.628 ± 0.11.

On to R12I, for which the abundance fitness was -0.803 ± 0.38.

For A22R, the abundance fitness was 0.094 ± 0.04.

As to A22H, the abundance fitness is -0.116 ± 0.22.

In the case of V76Y, the abundance fitness is -0.538 ± 0.21. As to V76R, the abundance fitness was -0.92 ± 0.13.

On to V76Q, for which the abundance fitness is -0.952 ± 0.29. The same measure, in the same setting: then V76S, with -1.05 ± 0.25; and V76K, with -0.598 ± 0.17. Same read-out and setting: then W58Q, with 0.174 ± 0.058. W58F: the abundance fitness was found to be 0.105 ± 0.11. The same measure, in the same setting: then W58T, with 0.319 ± 0.059.
